The target of the experiment is T1, glycosylated synapsin I from olfactory bulb lysate (rat, UniProt P09951 1-704, limits assumed, Fucα(1-2)Gal glycosylated (sites not given)).
T1 construct: Endogenous protein in tissue lysate, detected by Western blot with mouse anti-synapsin I ascites
Briefly: lectin affinity chromatography on UEAI-agarose, elution with 200 mM L-fucose, Western blot for synapsin I. For orientation: A western blot detects proteins with antibodies after separation by electrophoresis.

B1: UEAI lectin conjugated to agarose (Vector Laboratories) (other, UniProt P22972 1-243, looked up)
chain: SDDLSFKFKNFSQNGKDLSFQGDASVIETGVLQLNKVGNNLPDETGGIARYIAPIHIWNCNTGEVASFITSFSFFMETSANPKAATDGLTFFLAPPDSPLRRAGGYFGLFEDTKDNDSSYQTVAVEFDTIGSPVNFDDPGFPHIGIDVNRVKSINAERWNKRYGLNNVANVEIIYEASSKTLTASLTYPSDQTSISVTSIVDLKEILPEWVSVGFSGGTYIGRQATHEVLNWYFTSNLINTNS
modifications: conjugated to agarose
For B1, the binding result was “no binding (tested: 500 µg lysate)”.
